Laboratory results taken from US20150353909.

Experiments:
[1] = system: purified recombinant linear UB tetramers
[2] = system: purified recombinant linear UB dimers
[3] = target: K63-tetraubiquitin chains (UniProt P0CG48)
[4] = system: HA3-UBQ-GST [GST: P08515]
HA3-SUMO-GST = HA3-SUMO-GST (UniProt P55852)
[5] = target: K48-tetraubiquitin chains (UniProt P0CG48)
[6] = system: purified recombinant linear UB trimers
HA3-RUB-GST = HA3-RUB-GST (UniProt Q9SHE7)

Measured: in vitro deubiquitylation activity

Chain of K48-tetraubiquitin chains (P0CG48 whole entry, looked up): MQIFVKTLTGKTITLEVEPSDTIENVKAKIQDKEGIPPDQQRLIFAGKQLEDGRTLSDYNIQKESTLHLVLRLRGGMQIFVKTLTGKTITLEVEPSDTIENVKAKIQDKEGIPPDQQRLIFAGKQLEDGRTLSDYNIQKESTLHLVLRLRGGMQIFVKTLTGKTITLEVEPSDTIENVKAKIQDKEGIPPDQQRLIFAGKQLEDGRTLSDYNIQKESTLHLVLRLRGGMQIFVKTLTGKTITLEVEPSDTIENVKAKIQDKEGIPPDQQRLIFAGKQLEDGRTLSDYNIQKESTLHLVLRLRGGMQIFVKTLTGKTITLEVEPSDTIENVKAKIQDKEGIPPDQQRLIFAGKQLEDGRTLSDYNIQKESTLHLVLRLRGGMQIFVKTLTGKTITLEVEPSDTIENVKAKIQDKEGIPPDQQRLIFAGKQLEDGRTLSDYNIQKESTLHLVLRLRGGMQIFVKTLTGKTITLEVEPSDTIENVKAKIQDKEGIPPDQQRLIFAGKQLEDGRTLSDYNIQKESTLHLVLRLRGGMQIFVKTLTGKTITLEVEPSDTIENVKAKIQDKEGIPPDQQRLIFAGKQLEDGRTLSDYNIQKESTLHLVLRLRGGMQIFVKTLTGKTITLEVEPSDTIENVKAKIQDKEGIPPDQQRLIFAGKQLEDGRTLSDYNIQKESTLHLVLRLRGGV
Chain of K63-tetraubiquitin chains (P0CG48 whole entry, looked up): as above
Chain of His-tagged OTU11a (Q0V869 whole entry): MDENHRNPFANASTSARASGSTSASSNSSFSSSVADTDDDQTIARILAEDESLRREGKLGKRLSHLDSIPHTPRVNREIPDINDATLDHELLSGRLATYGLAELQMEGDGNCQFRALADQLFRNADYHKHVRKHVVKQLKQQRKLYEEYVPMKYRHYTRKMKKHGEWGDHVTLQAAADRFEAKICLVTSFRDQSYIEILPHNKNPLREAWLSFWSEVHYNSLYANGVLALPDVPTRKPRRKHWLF
Chain of His-tagged OTU12 (Q9SGA5 whole entry): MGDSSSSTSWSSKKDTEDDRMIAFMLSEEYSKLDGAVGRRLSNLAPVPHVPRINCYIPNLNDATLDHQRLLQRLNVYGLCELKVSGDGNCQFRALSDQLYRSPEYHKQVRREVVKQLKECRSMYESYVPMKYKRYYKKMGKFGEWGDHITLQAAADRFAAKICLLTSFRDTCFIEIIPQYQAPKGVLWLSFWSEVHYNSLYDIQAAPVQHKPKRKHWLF

His-tagged OTLD1a
-: all assays above

His-tagged OTU5b
-: all assays above

His-tagged OTU11a
-: all assays above

His-tagged OTU12
-: all assays above

OTU4d
-: all assays above
